Assay results taken from the Immune Epitope Database (IEDB).
pKd: −log10 of the molar value.

Key:
Conditions in all cases: source organism: Rickettsia akari str. Hartford
[1] = biological target: HLA-C*15:02; assay: IEDB peptide-MHC binding, purified MHC/direct/fluorescence; filed as Kd, often an IC50 or EC50 that approximates it; ≥ and ≤ were set here for values at or beyond the usual limits of such assays
[2] = biological target: HLA-A*69:01; assay: IEDB peptide-MHC binding, purified MHC/competitive/fluorescence; filed as Kd, often an IC50 or EC50 that approximates it; ≥ and ≤ were set here for values at or beyond the usual limits of such assays
[3] = biological target: HLA-B*15:01; assay: as above
[4] = biological target: HLA-B*14:02; assay: as above
[5] = biological target: HLA-A*68:02; assay: as above
[6] = biological target: HLA-A*02:19; assay: as above
[7] = biological target: HLA-B*08:01; assay: as above
[8] = biological target: HLA-A*29:02; assay: as above
[9] = biological target: HLA-A*02:12; assay: as above
[10] = biological target: HLA-A*66:01; assay: as above
[11] = biological target: HLA-B*58:01; assay: as above
[12] = biological target: HLA-A*02:01; assay: as above
[13] = biological target: HLA-B*27:03; assay: as above
[14] = biological target: HLA-B*39:01; assay: as above
[15] = biological target: HLA-A*02:16; assay: as above
[16] = biological target: HLA-B*57:01; assay: as above
[17] = biological target: HLA-B*46:01; assay: as above
[18] = biological target: HLA-B*40:01; assay: as above
[19] = biological target: HLA-A*24:03; assay: as above
[20] = biological target: HLA-B*44:02; assay: as above
[21] = biological target: HLA-A*23:01; assay: as above
[22] = biological target: HLA-B*18:01; assay: as above
[23] = biological target: HLA-B*07:02; assay: as above
[24] = biological target: HLA-B*53:01; assay: as above

Measured: pKd

FTARIIIFS
7.56: [5]
5.52: [10]
≤ 5.30: [4] | [7] | [11] | [18] | [20] | [23] | [24]
≤ 4.70: all other assays above
